# “And” between values parts separate entries of the source, which are not always exact repeats. Equal entries are not always repeated. “Also recorded” adds a separate entry of the source. Where two headings read alike, the source gives them in different places. Ends that are not written are not given here.
# Key:
# [1] = test system: insulin; conditions: literature, cited from earlier work
# Text: These agents routed via natural source or synthetic pathways are generally termed as amyloid inhibitors. The idea behind such anti-amyloid agent is to inhibit the creation of amyloidogenic aggregate and/to arrest the amyloid construction.
# [2] = test system: HT1080 cells
# [3] = test system: human red blood cells; conditions: red cells of human, 1 h, 250 µM
# [4] = molecular target: T1, insulin (Bos taurus, UniProt P01317); experiment: biochemical; type: binding, bovine; conditions: apparent Kd
# T1 construct: Insulin consists of two polypeptide chains (Chain A –21 residues; Chain B –30 residues) held together by two disulphide bonds; purchased Sigma (St. Louis, MO)
# [5] = molecular target: T1, insulin; type: biochemical, bovine
# [6] = molecular target: T1, insulin; type: biochemical, bovine; conditions: pH 2.6
# [7] = molecular target: T1, insulin; type: biochemical, bovine; conditions: pH 2.6; remark: listed apart in the source
# [8] = test system: insulin fibrils; type: biochemical, bovine; conditions: pH 2.6
# [9] = molecular target: T1, insulin; type: biochemical, bovine; conditions: pH 2.6; remark: listed apart in the source
# T1 sequence (P01317 25-54 limits assumed): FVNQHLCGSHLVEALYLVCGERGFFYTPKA
# T1 sequence (P01317 85-105 limits assumed): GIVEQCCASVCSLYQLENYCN
compound,measurement,setting,value
OCC(F)(F)F [trifluoroethanol],effect on insulin fibrillation (in words),[1]; ref [23],on binding with insulin trimer prevented the appearance of soluble oligomers; also recorded: could delay the fibrillation of insulin by interfering with the oligomer to monomer dissociation step
Triton X 100 [reference compound],viability,[2],20%
O=c1c(O)c(-c2ccc(O)c(O)c2)oc2cc(O)cc(O)c12 [quercetin],effect on insulin fibrillation (in words),[1]; ref [45]–[46],interfered with the dissociation of the oligomeric insulin to monomer and also destabilized preformed insulin fibril
"NIVNVSLVK [NK9, NIVNVSLVK]",hemolysis,[3],less than 0.5%
same,Kd,[4],2200 nM and 1200 nM
same,cytotoxicity,[2],less than 5%
"Insulin: 51-residue protein hormone; bovine insulin, two chains held together by two disulphide bonds","cross beta structure formation / helix loss of insulin (FT-IR, in words)",[5],forms the cross beta structure indicative of fibrils beyond 2 h; also recorded: significant increases in the A1628/A1654 ratio was observed after 2 h of incubation
same,β-sheet content of mature fibrils (FT-IR),[5],~60%
same,hydrodynamic radius,[6],2.0 nm
same,size of insulin monomer formed,[6],1.3 nm
same,size of large oligomer,[6],24 nm
same,helix content of insulin (CD),[7],39%
same,fibril morphology by TEM,[8],branched insulin fibrils
same,Apparent Rate Constant,[9],2.9 ± 0.13 h⁻¹
same,Lag Time,[9],120 min and 120 ± 5 min
